Columns and labels:
soluble CD16A (sCD16A) = biological target: T1, soluble CD16A (sCD16A) (human, UniProt P08637 17-208, biotin- or HRP-conjugated where used as the ELISA probe); test: SPR (BIAcore), receptor immobilized
T1 construct: extracellular domain; Printed only as soluble CD16A; Also used here where an ELISA names only CD16 or CD16A; also called hCD16A; FcγRIIIA

soluble CD32A (sCD32A) = biological target: T2, soluble CD32A (sCD32A) (UniProt P12318 34-217, limits assumed); test: SPR (BIAcore), receptor immobilized
T2 construct: extracellular domain; Negative control receptor in SPR; also called control receptor
T2 sequence (looked up): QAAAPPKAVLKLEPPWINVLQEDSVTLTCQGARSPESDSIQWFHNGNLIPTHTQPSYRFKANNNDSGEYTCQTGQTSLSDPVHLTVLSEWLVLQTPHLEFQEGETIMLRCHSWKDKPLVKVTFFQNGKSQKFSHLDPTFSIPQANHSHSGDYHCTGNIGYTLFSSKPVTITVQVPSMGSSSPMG

soluble CD32B (sCD32B) = biological target: T3, soluble CD32B (sCD32B) (human, UniProt P31994 43-217, biotinylated where used as the ELISA probe); test: SPR (BIAcore), sCD32B immobilized, diabody 6.25-200 nM as analyte, bivalent analyte fit
T3 construct: extracellular domain; also called huCD32B; FcγRIIB
T3 sequence (looked up): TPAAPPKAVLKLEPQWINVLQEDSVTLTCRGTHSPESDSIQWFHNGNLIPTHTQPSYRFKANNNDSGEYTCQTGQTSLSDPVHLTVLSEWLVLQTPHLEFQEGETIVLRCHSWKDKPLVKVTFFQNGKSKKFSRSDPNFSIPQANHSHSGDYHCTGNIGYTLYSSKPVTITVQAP

T1 sequence (P08637 17-208): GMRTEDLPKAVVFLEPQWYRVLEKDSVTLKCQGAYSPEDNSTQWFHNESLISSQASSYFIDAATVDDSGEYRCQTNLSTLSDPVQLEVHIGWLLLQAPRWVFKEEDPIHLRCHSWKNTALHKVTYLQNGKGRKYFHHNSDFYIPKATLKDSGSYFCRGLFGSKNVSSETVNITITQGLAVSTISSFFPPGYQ

B1: h2B6 covalent monospecific diabody (CMD) (other)
chain: EIVLTQSPDFQSVTPKEKVTFTCRTSQSIGTNIHWYQQKPDQSPKLLIKEVSESISGVPSRFSGSGSGTDFTLTINSLEAEDAATYYCQQSNTWPFTFGGGTKVEIKGGGSGGGGQVQLVQSGAEVKKPGASVKVSCKASGYTFTNYWIHWVRQAPGQGLEWIGVIDPSDTYPNYNKKFKGRVTMTVVVSTSTAYMELRSLRSDDTAVYYCARNGDSDYYSGMDYWGQGTTVTVSSLGGC
notes: Homodimer of construct 4 (hu2B6VL-hu2B6VH-LGGC); also called h2B6 CMD; h2B6 diabody
binding result (soluble CD16A (sCD16A)): no binding (tested: 100 nM) | binding result (soluble CD32A (sCD32A)): no binding (tested: 100 nM) | Kd (soluble CD32B (sCD32B)): 21 nM

Source: patent publication US20130295121A1 (published 2013)
